Results on two molecules are retold here after publication PMC11348030, “mTORC1 phosphorylates and stabilizes LST2 to negatively regulate EGFR” (Proceedings of the National Academy of Sciences of the …, 2024).

Where no end group is shown, it is not given here. The star is where a group is joined. FITC = O=C1OC2(c3ccc(O)cc3Oc3cc(O)ccc32)c2ccc(NC(=S)*)cc21

For experiment [1], the target named is T1, regulatory-associated protein of mTOR (RAPTOR) (UniProt Q8N122 1-1335).
T1 construct: RAPTOR, regulatory-associated protein of mTOR; purified protein; Construct, host and tags are in SI Appendix, Material and Methods; In the cryo-EM rows RAPTOR stood as a subunit of mTORC1; source: purified
The experiment can be described thus: co-IP; coimmunoprecipitation with purified RAPTOR and purified full-length LST2 (WT or F401A); blot quantified, N = 3. To be noted: both partners purified.

The target of experiment [2] is T1, regulatory-associated protein of mTOR …. The experiment can be described thus: fluorescence polarisation; fluorescence anisotropy; purified RAPTOR with N-terminally FITC-labeled synthetic LST2 TOS peptides; N = 3. To be noted: both partners purified. A general note: Polarisation of emitted light reports the rotation of a fluorescent probe.

T1 sequence (Q8N122 whole entry): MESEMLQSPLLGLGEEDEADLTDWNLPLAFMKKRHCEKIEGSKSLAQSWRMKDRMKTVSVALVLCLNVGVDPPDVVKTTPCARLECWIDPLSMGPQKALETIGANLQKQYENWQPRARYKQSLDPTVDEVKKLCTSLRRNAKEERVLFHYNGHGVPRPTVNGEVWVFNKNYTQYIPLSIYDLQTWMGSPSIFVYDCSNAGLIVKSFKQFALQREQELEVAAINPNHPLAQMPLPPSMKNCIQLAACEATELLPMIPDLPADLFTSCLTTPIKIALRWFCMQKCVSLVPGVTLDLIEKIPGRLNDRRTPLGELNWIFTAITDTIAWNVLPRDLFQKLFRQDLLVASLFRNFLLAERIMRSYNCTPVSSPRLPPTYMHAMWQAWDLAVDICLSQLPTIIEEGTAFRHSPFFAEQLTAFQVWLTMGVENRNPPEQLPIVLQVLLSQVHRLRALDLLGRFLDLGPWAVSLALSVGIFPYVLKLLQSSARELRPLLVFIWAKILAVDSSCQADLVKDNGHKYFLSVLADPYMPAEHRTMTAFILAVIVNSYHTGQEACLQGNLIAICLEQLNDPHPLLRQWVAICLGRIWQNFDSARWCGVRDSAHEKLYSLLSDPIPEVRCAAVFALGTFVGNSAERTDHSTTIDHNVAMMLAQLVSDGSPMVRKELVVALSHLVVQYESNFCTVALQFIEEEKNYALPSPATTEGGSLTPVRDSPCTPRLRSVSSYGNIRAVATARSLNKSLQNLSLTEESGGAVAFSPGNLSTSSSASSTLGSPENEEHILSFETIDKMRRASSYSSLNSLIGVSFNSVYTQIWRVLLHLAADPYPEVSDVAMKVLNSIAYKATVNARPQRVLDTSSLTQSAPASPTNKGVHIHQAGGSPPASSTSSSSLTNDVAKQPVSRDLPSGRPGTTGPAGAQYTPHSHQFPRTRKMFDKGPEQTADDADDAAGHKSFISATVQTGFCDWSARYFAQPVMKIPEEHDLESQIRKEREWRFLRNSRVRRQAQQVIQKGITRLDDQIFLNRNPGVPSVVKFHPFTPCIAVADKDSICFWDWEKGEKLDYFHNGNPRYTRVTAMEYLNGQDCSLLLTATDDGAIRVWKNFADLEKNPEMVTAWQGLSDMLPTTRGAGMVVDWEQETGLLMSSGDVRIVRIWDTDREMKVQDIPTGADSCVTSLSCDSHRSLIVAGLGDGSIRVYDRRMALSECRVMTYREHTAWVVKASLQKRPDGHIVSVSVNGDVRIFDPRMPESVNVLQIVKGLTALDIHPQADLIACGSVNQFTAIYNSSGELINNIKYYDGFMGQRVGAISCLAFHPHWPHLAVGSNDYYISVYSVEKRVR

B1: full-length LST2 F401A (natural protein, UniProt Q9HCC9 1-887, looked up)
chain: MMNRFRKWLYKPKRSDPQLLARFYYADEELNQVAAELDSLDGRKDPQRCTLLVSQFRSCQDNVLNIINQIMDECIPQDRAPRDFCVKFPEEIRHDNLAGQLWFGAECLAAGSIIMNRELESMAMRPLAKELTRSLEDVRGALRDQALRDLNTYTEKMREALRHFDVLFAEFELSYVSAMVPVKSPREYYVQQEVIVLFCETVERALDFGYLTQDMIDDYEPALMFSIPRLAIVCGLVVYADGPLNLDRKVEDMSELFRPFHTLLRKIRDLLQTLTEEELHTLERNLCISQDVEFPIRADVQGPAALAPALSAPLPPEGPLSAKAKDPDAELACSMQYDDQELEQLSRMVHRAGDEMSSLLSPPIACQSPAHRPGAEGSPGGEASPGRPRLRSGSDEEERVAFMDDVEGTAEALARPESPAGPFGWAGSTWADPQEKGQGGPGGAAGISLPASEKEEDLSNNNLEAEGTDGASLAGTSSCSCLDSRLHLDGWEVGADDAETAEMIAHRTGGMKLSATVIFNPKSPTSLDSAVATQEAASEPVAEGMDGGPHKLSTGATNCLLHSCVCCGSCGDSREDVVERLREKCSPGGVIGASYAAGLAKASDRAPERQEEAPPPSEDASNGREPKAPTSDKCLPHTSGSQVDTASGLQGEAGVAGQQEPEARELHAGSPSAHEAPQALSGSSSSTAGSCSSDKMGPEAAPAATHAAPQATREKIRSRFHGSHDLIHRLFVCISGVADQLQTNYASDLRSILKTLFEVMATKPETDDKEKLRKVTQTLRSAALEDCALCQETLSSSELAAKTRDGDFEDPPEWVPDEACGFCTACKAPFTVIRRKHHCRSCGKIFCSRCSSHSAPLPRYGQVKPVRVCTHCYMFHVTPFYSDKAGL
notes: LST2 (ZFYVE28), full length, with F401A in the TOS motif; Tags and host in SI Appendix; also called TOS-deficient LST2-F401A; source: purified
For B1, the “fold reduction of binding against LST2-WT” value in experiment [1] was found to be 9 fold.

B2: FITC-labeled LST2 TOS peptide including flanking residues (amino acids 395 to 407) (peptide, UniProt Q9HCC9 395-407, looked up)
peptide: {FITC}-DEEERVFFMDDVE
notes: also called LST2 TOS peptide WT; FITC-labeled peptide; source: synthetic peptide
A word on the Kd: it is the free concentration of one partner at which half of the binding sites on the other are occupied at equilibrium, for simple one-to-one binding. The low end stands for a tighter complex, the high end for a looser complex. Consider B2, for which the Kd in experiment [2] came out at 330 nM.
